Laboratory results from PMC11077763.

Target: murine TRIM66 PHD-Bromodomain (a.a. 996-1,185) (mouse) (UniProt Q924W6)
Assay: ITC; 800 uM to 2.4 mM peptide in the syringe injected into 30-50 uM mTRIM66 PHD-Bromodomain in the cell; 25°C; 20 mM Tris pH 7.5, 100 mM NaCl; single-site binding model; triplicate

UniProt Q924W6, sequence (Q924W6 996-1185): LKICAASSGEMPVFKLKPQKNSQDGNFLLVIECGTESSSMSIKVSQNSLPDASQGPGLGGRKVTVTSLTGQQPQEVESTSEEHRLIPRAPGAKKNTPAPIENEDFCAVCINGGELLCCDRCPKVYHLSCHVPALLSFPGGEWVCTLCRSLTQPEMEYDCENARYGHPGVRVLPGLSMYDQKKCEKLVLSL

Row | Kd | fold decrease of the binding affinity against the unmodified H3 tail | fold increase of the binding affinity against H3K4me3 alone | Substance
1 | 59.5 µM | – | – | H3 (1-30) K4me3 (from UniProt P68431 2-31) (peptide)
2 | 3.4 µM | – | – | H3 (1-30) unmodified (from UniProt P68431 2-31) (peptide)
3 | – | 7.1 fold | 2.4 fold | H3 (1-30) K4me3+K18Ac (from UniProt P68431 2-31) (peptide)
4 | 1.3 µM | – | – | H3 (1-30) K9me3+K18Ac (from UniProt P68431 2-31) (peptide)
